Reference: paper PMC9576894

Biological target: MUC4 glycopeptide
Experiment: peptide or protein array; glycan microarray, components printed on epoxy slides; re-expressed antibody in solution at four concentrations from 1.5 to 100 μg/ml on the 873-component array; PBS pH 7.4, 0.05% Tween-20, 3% BSA; 37 °C, 3.5 h; detected with Cy3 anti-human IgG; apparent KD estimated by the method of Gordus and MacBeath

Kd: > 1000 nM
B1: ADI-47299 (antibody, V domains shown)
VH: QVQLVQSGGGVVQPGRSLRLSCAASGFTFRLYSMHWVRQAPGKGLEWVGVISHTVTDKLYADSVKGRFSVSRDNSKNTLFLQMDSLRAEDTAVYYCARDGFDYWGQGTLVTVSS
VL: EIVMTQSPLSLPVTLGQPASISCKSSQSLVYSDGDTYLNWFQQRPGQSPRRLIYKVSKRDSGVPDRFSGSGSGTDFTLKISRVEAEDLGVYYCMQGTHWPLTFGPGTKLEIK
